From paper PMC10144703, “Molecular Mechanism of Sirtuin 1 Inhibition by Human Immunodeficiency Virus 1 Tat Protein” (Life, 2023)

Target: T1, human full-length Sirt1 (fl-Sirt1) (Homo sapiens, UniProt Q96EB6)
T1 construct: human full-length Sirt1 (fl-Sirt1) in pET-15b; made in house; host or cells: E. coli CodonPlus(DE3)
T1 sequence (Q96EB6 1-747): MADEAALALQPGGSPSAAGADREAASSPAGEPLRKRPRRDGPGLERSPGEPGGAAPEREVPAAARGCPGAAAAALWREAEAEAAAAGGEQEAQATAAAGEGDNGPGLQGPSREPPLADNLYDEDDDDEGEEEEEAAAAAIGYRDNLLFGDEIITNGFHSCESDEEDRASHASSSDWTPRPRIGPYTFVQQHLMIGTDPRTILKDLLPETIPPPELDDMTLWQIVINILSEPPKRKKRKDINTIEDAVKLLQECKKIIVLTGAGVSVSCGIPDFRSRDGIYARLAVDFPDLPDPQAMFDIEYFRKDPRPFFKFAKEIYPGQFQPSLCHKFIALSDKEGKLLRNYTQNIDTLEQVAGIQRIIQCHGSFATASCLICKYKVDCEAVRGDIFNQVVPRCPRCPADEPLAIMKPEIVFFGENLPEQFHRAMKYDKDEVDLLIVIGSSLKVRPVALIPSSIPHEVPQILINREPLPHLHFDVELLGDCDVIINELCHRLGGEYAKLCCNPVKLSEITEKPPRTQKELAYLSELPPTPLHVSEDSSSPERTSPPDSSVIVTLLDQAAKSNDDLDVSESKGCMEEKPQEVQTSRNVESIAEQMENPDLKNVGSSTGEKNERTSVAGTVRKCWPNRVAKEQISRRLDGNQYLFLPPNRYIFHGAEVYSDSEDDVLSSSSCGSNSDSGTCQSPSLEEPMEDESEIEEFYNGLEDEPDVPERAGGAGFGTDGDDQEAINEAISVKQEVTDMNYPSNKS
Assay: FdL deacetylation assay, fl-Sirt1
Assay type: biochemical
Conditions: FdL assay, 100 µM FdL-1, 500 µM NAD^+, pH 7.8, 37 °C; n = 2; read-out: IC50, fl-Sirt1, truncated Tat-Cys^− constructs
Source text: A human mini-Sirt1 construct (aa 183-505-(GGGS)2-641-665), as described in [27], was generated in a modified pET-19b with a TEV cleavage site. This construct and human full-length Sirt1 (fl-Sirt1) in pET-15b, Sirt1-(183-664) and Sirt1-(214-664) in pET-15b, mini-Sirt1-∆SBD (aa 214-505-(GGGS)2-641-665) and mini-Sirt1-∆ESA (aa 183–505) in a modified pET-19b with TEV cleavage site, Sirt2-(43-356) in a modified pET-19b with a His6-Sumo tag, Sirt3-(93-399) in a modified pET-32a with Trx-His6 tag and TEV cleavage site, hSirt3-(118-399) in pVFT3S (Sungkyunkwan University, Seoul, Republic of Korea) with His6-Trx tag and TEV cleavage site, Sirt5-(34-302) in pET-151/D-TOPO, and Sirt6-(1-355) in pQE80L.1 were purified as described. Shortly, proteins were expressed at 20 °C (mini-Sirt1 constructs at 16 °C) in E. coli CodonPlus(DE3), cell lysates were cleared by centrifugation, and proteins were purified via affinity chromatography using a nickel NTA column. After digestion with thrombin or TEV protease, proteins were re-run over the nickel NTA column, pooled, and concentrated. The samples were, then, subjected either directly to size exclusion chromatography in 50 mM Tris/HCl, pH 8.0, 150 mM NaCl, 1 mM TCEP, or to an ion exchange chromatography followed by size exclusion chromatography. […]

B1: Tat-Cys^− residues 1–63: C-terminally shortened Tat-Cys^− construct, residues 1–63 (protein)
chain: MDPVDPNIEPWNHPGSQPKTASNRAHAKKSAYHSQVAFITKGLGISYGRKKRRQRRRPSQGGQ
B1 was tested, and the IC50 was ~10 µM.
